Measured values published in the supplement of paper PMC9170038.

Experiments:
Settings in all cases: FMN input: 0 or 200 uM; Eterna round: R93 (includes R88 designs)
[1] = tested on: MS2 coat protein; test: apparent KD of MS2 coat protein, switch ON state; designed switch direction (-1 OFF switch, 1 ON switch): 1; higher = weaker reporter binding
Outline: (§1)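 Apparent KD was obtained for each design as the median of normalised binding-curve fits over its clusters. RNA switches transcribed on-chip from Illumina sequencing clusters were titrated with SNAP-549-labelled MS2 coat protein (twofold steps, 0.7 or 1.5 nM to 3 µM) in 100 mM Tris-HCl pH 7.5, 80 mM KCl, 4 mM MgCl2, without or with constant ligand.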

[2] = tested on: MS2 coat protein; test: apparent KD of MS2 coat protein, switch OFF state (with FMN for OFF switches, without FMN for ON switches); designed switch direction (-1 OFF switch, 1 ON switch): 1; higher = weaker reporter binding
Outline: as §1

[3] = tested on: MS2 coat protein; test: apparent KD of MS2 coat protein, switch ON state; designed switch direction (-1 OFF switch, 1 ON switch): -1; higher = weaker reporter binding
Outline: as §1

[4] = tested on: MS2 coat protein; test: apparent KD of MS2 coat protein, switch OFF state (with FMN for OFF switches, without FMN for ON switches); designed switch direction (-1 OFF switch, 1 ON switch): -1; higher = weaker reporter binding
Outline: as §1

Sequence | apparent KD of MS2 coat protein [1] | apparent KD of MS2 coat protein [2] | apparent KD of MS2 coat protein [3] | apparent KD of MS2 coat protein [4]
AAAAAAAAAAAUAAGGAUAUGUGAUCGGUGACAUGAGGAUCACCCAUGUAAGGCCUCCGGGACGGGCAGAAGGUAUAAAAAAAAA [Same State2-III] | 491 nM | 607 nM | – | –
AAAAAAAAAAGUCAGGAUAUACAAAUUUUUACAUGAGGAUCACCCAUGUUAAAGAAAAAAAAAAAGUAGAAGGGACAAAAAAAAAA [Same State 2 - Omei 2] | 11.1 nM | 15.4 nM | – | –
AAAAAAAAAGUGCAGGAUAUCCUCAUGGCUACAUGAGGAUCACCCAUGUGAAGAAAAGCACAUGAGGAGAAGGGCACAAAAAAAAA [Balance beam] | 12.3 nM | 23.1 nM | – | –
AAAAAAAAAUCUCAGGAUAUAGAUUAUAGAACAUGAGGAUCACCCAUGUAGUGAAAGAAGAAAAACUAGAAGGGAGGAAAAAAAAA [Same State 2 #2] | 48.2 nM | 70.8 nM | – | –
AAAAAAAAUGUGUAGGAUAUCAGUAAAAAUACAUGAGGAUCACCCAUGUUCAAAAAAAAAAAAACUGAGAAGGACACGGAUGGUCC [Design 1] | 35.5 nM | 42.6 nM | – | –
AAAAAACAUGAGGAUCACCCAUGUAAAAAAAUCGCAGGAUAUAAGGUCGCGAAAGCGACCUUAGAAGGGCGAUCCU [Louisiana 1 - Jieux - Same State 1] | 46.3 nM | 75.8 nM | – | –
AAAAAACAUGAGGAUCACCCAUGUAAAAAAAUGGGAGGAUAUACAAAAAAAAAAAAAAAAGUAGAAGGCCUGAAAA [same state 10] | 62.3 nM | 533 nM | – | –
AAAAAACAUGAGGAUCACCCAUGUAAAAAAAUGGGAGGAUAUACAAAAACGAAAGUCAAAGUAGAAGGCCUGAAAA [same state 5] | 19.3 nM | 172 nM | – | –
AAAAAACAUGAGGAUCACCCAUGUAAAAUUAUGGGAGGAUAUGGAAACACGAAAGUGAAACCAGAAGGCCUAAAAG [77%, Mat - Mod of Eli, 11] | 25.1 nM | 49.7 nM | – | –
AAAAAACAUGAGGAUCACCCAUGUAGAAACAUGGGAGGAUAUACGAAGACGAAAGUCAAAGUAGAAGGCCUAAGAA [Garnet 88] | 182 nM | 224 nM | – | –
AAAAAACAUGAGGAUCACCCAUGUGAAAAUAUGGGAGGAUAUACAAAGACGAGAGUCAAAGUAGAAGGCCUAAAAA [Mat - Same State 1 - Eli mod - D87] | 26.6 nM | 139 nM | – | –
AAAAAACAUGAGGAUCACCCAUGUGAGAACAUGGGAGGAUAUACAAGGAUGAGAGUCAAGGUAGAAGGCCUAAGAA [Garnet 70] | 76.1 nM | 48.5 nM | – | –
AAAAAAUAAAAAAAGGAUAUACUGCUAGAAACAUGAGGAUCACCCAUGUAACUAGCAGUAAUAAAAAAGAAGGAAAAAUAAAAAA [SS2: MS2 35] | 1.15 nM | 3.61 nM | – | –
AAAAAUAAAACACAGGAUAUCCAAAAGAAAACAUGAGGAUCACCCAUGUAAAGAAAAUAAAAAUGGGAGAAGGGUGAAAAUAAGA [Mat - Same State 2 - JL mod - D21] | 29.9 nM | 52.6 nM | – | –
AAAACACAUGAGGAUCACCCAUGUAUCUGGACCAUAGGAUAUCCGCACCCACUAAGGCGUGGAGAAGGGUGAGCCC [Antisoorti] | 160 nM | 124 nM | – | –
AAAACACAUGAGGAUCACCCAUGUGCAAAAUUCGCAGGAUAUUUCUCGAUUAAAUGAUAGGAAGAAGGGUGAUAAA [Nob's Hobby 35 - Jieux - Same State 1] | 25.8 nM | 33.7 nM | – | –
AAAAGACAUGAGGAUCACCCAUGUAAAAACAUAGGAGGAUAUGUCGUGAAAAAAGACUUGGCAGAAGGCCUAUGUC [SS1 - 44] | 19.7 nM | 30.7 nM | – | –
AAAAGACAUGAGGAUCACCCAUGUAAAAACUUGGGAGGAUAUGCUUGGAAAACAUGCUAUGCAGAAGGCUCUAGUC [SS1 - 14] | 78.3 nM | 123 nM | – | –
AAAAGACAUGAGGAUCACCCAUGUCAAAAGACAUGAGGAUAUGUACAGACUUCGGUCUGUACAGAAGGCAUGAAAA [SS1 - 1066] | 13.8 nM | 23.6 nM | – | –
AAAAGACAUGAGGAUCACCCAUGUUAAGACGUAGGAGGAUAUGUAUGGAAAACAUGCUGUACAGAAGGCCUGUGUC [SS1 - 26] | 17.8 nM | 20.8 nM | – | –
AAAAGACAUGAGGAUCACCCAUGUUAAGACGUAGGAGGAUAUGUCGUGAAAAAAGACUUGACAGAAGGCCUGUGUC [SS1 - 38] | 16 nM | 20.4 nM | – | –
AAAAUACAUGAGGAUCACCCAUGUCCGACAAAUCAAGGAUAUGAUAGCCAAACCAAGCUGUUAGAAGGUGAAAGAA [Edengere] | 499 nM | 208 nM | – | –

Sequence | apparent KD of MS2 coat protein [1] | apparent KD of MS2 coat protein [2] | apparent KD of MS2 coat protein [3] | apparent KD of MS2 coat protein [4]
AAAAUACAUGAGGAUCACCCAUGUGAAAAUAUGGGAGGAUAUACAAAAACGAAAGUAAAAGUAGAAGGCCUAAAAA [SS! 1 MT 1] | 37.8 nM | 185 nM | – | –
AAACCACAUGAGGAUCACCCAUGUAAAAAUAUGGGAGGAUAUCGGAAUAAAAUAAAGAAACGAGAAGGCCUAAAAA [59%, Flamingo, 5] | 33.7 nM | 472 nM | – | –
AAAGAAAAACUAGAGGAUAUCCGAGUGGUAACAUGAGGAUCACCCAUGUGAUGAAAGGAACAUGAGGAGAAGGCUAGAAGAAAAA [JL Nando mod 8] | 14.4 nM | 257 nM | – | –
AAAGACAUGGUGCAGGAUAUAUUAAUAGUCACAUGAGGAUCACCCAUGUUCAGAUAUCUGAACGAGUAGAAGGGCGAUGAAAAAA [SameState2 Malc#5] | 88.9 nM | 61.9 nM | – | –
AAAUAAAUGACUAAGGAUAUAUUAGAGAAAACAUGAGGAUCACCCAUGUAAUAAUAAAAAGGGUGAUAGAAGGUAGUCAACAAAC [74%, More Paria 4] | 132 nM | 48.8 nM | – | –
GGAAAACAUGAGGAUCACCCAUGUGAGGAUAUCGAUGUCCAAAAGAAAGUGCGGGACUCGAGAAGGCACUUGGA [salish99-ex1-36] | – | – | 56.3 nM | 45.8 nM
GGGUCACAUGAGGAUCACCCAUGUAAGGAUAUGCUAGGGAUGGAAACCAUUCCGCAACGCAGAAGGUACUAAAG [Janelle Amethyst 18 Mod 12 - Jieux - Exclusion 1] | – | – | 50.4 nM | 105 nM
GGGUCACAUGAGGAUCACCCAUGUAAGGAUAUGCUAGGGAUGGAAGCCAGGCCGCAACGCAGAAGGUACUAAAG [Janelle Amethyst 18 Mod 14 - Jieux - Exclusion 1] | – | – | 55.1 nM | 54.7 nM
GGUUGGCGAGGAUAUACAUGAGGAUCACCCAUGUGAGAGAAAAAAGUAAGAAAGAAAAGUAGAAGGCGCUGACG [salish99-ex3-51] | – | – | 30.7 nM | 87.8 nM
GGUUGGCGAGGAUAUACAUGAGGAUCACCCAUGUGAGAGAAAAAAGUGAGAAUGAAAAGUAGAAGGCGCUGACG [salish99-ex3-35] | – | – | 46.2 nM | 215 nM
GUCGUGUGAGGAUAUGGAAAGUAGAAGUGGCGGUCGAAAACCUAGAAGGCACAUGAGGAUCACCCAUGUAAGAG [JR_Exc004_Sub1708] | – | – | 57 nM | 54.3 nM
GUGUACAGAGGAUAUACAUGAGCAUGGAAUCAUGCAGGAUCACAUGAGGAUCACCCAUGUAGAAGGCUGUACAC [LROPPY Exclusion 2 - v06_mod Brourd] | – | – | 66.9 nM | 39.8 nM
GUGUACAGAGGAUAUACAUGAGCUAGGAAACUAGCAGGAUCACAUGAGGAUCACCCAUGUAGAAGGCUGUACAC [Ex2: 731] | – | – | 42.5 nM | 15.5 nM
GUGUACAGAGGAUAUACUGGAGCAUGGAAACAUGCAAGAUCACAUGAGGAUCACCCAUGUAGAAGGCUGUACAC [Ex2: 742] | – | – | 119 nM | 21.8 nM
GUGUACAGAGGAUAUAUAUGAGCAUGGAAACAUGCAUCCUCACAUGAGGAUCACCCAUGUAGAAGGCUGUACAC [Ex2: 704] | – | – | 624 nM | 41.3 nM
UAAAAGGUAGGAUAUACUUGGAAGACCUGCCAACAAUAACAACAUGAGGAUCACCCAUGUAGAAGGACCAAUAU [Edtiatlema] | – | – | 23.2 nM | 19.5 nM
UACGUAUGAGGAUAUACAAACAGAAAAAUCAGACAUAACUGACAUGAGGAUCACCCAUGUAGAAGGCAUAUACA [JR_Exc002_Sub904] | – | – | 25.3 nM | 17.4 nM
UAGAAGGUAGGAUAUACUUGGGAAACUAAUGCAAAGAUAUAACAUGAGGAUCACCCAUGUAGAAGGGCCAGUAA [JR_Exc002_Sub018] | – | – | 114 nM | 97.9 nM
UCACACCUAGGAUAUACAUGAGGAUCACCCAUGUGGCACUCCGCAGGCAGUGUUCCCAGUAGAAGGAGGACACG [Ricere] | – | – | 27.8 nM | 22.4 nM
UCCGAACAUGAGGAUCACCCAUGUCAGGAUAUACACCCAGCAUGGAAGCCAUGCUCAAGUAGAAGGGACGGGUG [Inxeus] | – | – | 34.9 nM | 34.9 nM
UCCUGACAUGAGGAUCACCCAUGUCAGGAUAUCUACAGAACCUCAUGUAAAAAACUGUAGAGAAGGGAUAUGGG [Design 98: Pseudoknot H] | – | – | 16.9 nM | 17.5 nM
